Laboratory results taken from article PMC3928677 (Science (New York, N.Y.), 2013).
“And” between values parts separate entries of the source, which are not always exact repeats. Equal entries are not always repeated. Where two headings read alike, the source gives them in different places.

Tests used:
[1] = target: T1, RseB (Escherichia coli, UniProt P0AFX9); assay: fluorescence anisotropy, displacement of fluorescent RseA^P; type: binding
T1 sequence (P0AFX9 24-318): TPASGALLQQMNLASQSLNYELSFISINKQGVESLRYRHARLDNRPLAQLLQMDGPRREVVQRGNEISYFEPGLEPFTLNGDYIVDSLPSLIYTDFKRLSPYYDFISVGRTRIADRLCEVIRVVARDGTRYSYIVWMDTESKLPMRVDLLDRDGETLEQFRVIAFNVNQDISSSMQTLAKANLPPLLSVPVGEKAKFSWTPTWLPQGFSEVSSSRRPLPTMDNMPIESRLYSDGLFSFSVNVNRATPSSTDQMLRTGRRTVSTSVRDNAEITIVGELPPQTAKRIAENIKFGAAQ

[2] = target: the molecule itself; assay: SEC
[3] = target: the molecule itself; assay: SEC; remark: listed apart in the source

Molecule	EC50 [1] [µM]	stoichiometry N [2]	stoichiometry N [3]
CCCCCCCCCCC[C@@H](O)CC(=O)N[C@H]1[C@H](OC[C@H]2O[C@H](OP(=O)(O)O)[C@H](NC(=O)C[C@H](O)CCCCCCCCCCC)[C@@H](O)[C@@H]2O)O[C@H](CO)[C@@H](OP(=O)(O)O)[C@@H]1O [L-IIA]	~65	–	–
RseB (natural protein, E. coli, UniProt P0AFX9 24-318, looked up, 35S label (in the elution assay from RseA^P-agarose only)) TPASGALLQQMNLASQSLNYELSFISINKQGVESLRYRHARLDNRPLAQLLQMDGPRREVVQRGNEISYFEPGLEPFTLNGDYIVDSLPSLIYTDFKRLSPYYDFISVGRTRIADRLCEVIRVVARDGTRYSYIVWMDTESKLPMRVDLLDRDGETLEQFRVIAFNVNQDISSSMQTLAKANLPPLLSVPVGEKAKFSWTPTWLPQGFSEVSSSRRPLPTMDNMPIESRLYSDGLFSFSVNVNRATPSSTDQMLRTGRRTVSTSVRDNAEITIVGELPPQTAKRIAENIKFGAAQ	–	2	4
MucB (natural protein, Pseudomonas aeruginosa, UniProt P38108 22-316, looked up, 35S label (in the elution assay from MucA^P-agarose only)) ADASDWLNRLAEADRQNSFQGTFVYERNGSFSTHEIWHRVESDGAVRERLLQLDGARQEVVRVDGRTQCISGGLADQLADAQLWPVRKFDPSQLASWYDLRLVGESRVAGRPAVVLAVTPRDQHRYGFELHLDRDTGLPLKSLLLNEKGQLLERFQFTQLNTGAAPAEDQLQAGAECQVVGPAKADGEKTVAWRSEWLPPGFTLTRSFMRRSPVTPDPVACLTYGDGLARFSVFIEPLHGAMVGDARSQLGPTVVVSKRLQTDDGGQMVTVVGEVPLGTAERVALSIRPEAAAQK	–	–	4 and 2
